Legend:
[1] = target: platelet glycoprotein receptor Ib (UniProt P07359)
[2] = target: platelet glycoprotein receptor Ib (UniProt P07359); remark: listed apart in the source

With “von Willebrand factor in plasma (from UniProt P04275 764-2813) (natural protein)” the VWF:RCo activity in factor VIII-deficient plasmas after addition of purified recombinant factor VIII [1] was 4 fold and the VWF:RCo activity (ristocetin co-factor assay, aggregation of fixed platelets) in factor VIII-deficient plasmas after addition of polyP65 (2.5 and 7.1 µM) [2] was 2 fold.

From paper PMC9692336
